This note sets out measurements from paper PMC5549993, “Bacterial effector NleL promotes enterohemorrhagic E. coli-induced attaching and effacing lesions by ubiquitylating and inactivating JNK” (PLoS Pathogens, 2017).

For experiment [1], the target named is T1, GST-tagged wild-type NleL (full length) (E. coli O157:H7 Sakai strain, UniProt A0A0H3JDV8 1-782).
T1 construct: also called GST-NleL; EspX7; source: E. coli BL21 (DE3), purified (Glutathione Sepharose)
T1 sequence: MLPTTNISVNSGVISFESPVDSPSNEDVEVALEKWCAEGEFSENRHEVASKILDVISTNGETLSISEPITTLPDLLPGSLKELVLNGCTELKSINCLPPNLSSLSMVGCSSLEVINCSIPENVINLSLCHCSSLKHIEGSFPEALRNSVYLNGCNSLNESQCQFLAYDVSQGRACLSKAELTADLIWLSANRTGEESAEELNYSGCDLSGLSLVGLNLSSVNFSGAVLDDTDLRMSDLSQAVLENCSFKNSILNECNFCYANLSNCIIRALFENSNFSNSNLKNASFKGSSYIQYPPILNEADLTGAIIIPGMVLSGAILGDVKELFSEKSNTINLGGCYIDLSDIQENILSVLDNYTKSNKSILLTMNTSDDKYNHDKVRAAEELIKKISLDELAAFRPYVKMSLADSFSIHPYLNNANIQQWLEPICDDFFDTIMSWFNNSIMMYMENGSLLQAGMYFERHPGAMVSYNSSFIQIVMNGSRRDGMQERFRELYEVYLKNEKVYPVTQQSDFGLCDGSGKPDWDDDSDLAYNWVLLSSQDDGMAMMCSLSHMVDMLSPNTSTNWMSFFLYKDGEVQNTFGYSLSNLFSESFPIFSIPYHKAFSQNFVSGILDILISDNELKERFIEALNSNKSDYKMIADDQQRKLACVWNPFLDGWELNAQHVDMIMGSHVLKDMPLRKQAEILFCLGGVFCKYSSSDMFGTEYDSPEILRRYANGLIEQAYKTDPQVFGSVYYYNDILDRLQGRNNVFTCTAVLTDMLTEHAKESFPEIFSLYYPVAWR
Description: pull-down. The following applies: both partners purified.

For experiment [2], the target named is T2, GST-tagged NleL C753A mutant (E. coli O157:H7 Sakai strain, UniProt A0A0H3JDV8 1-782, C753A).
T2 construct: also called GST-NleL-CA; NleL-CA
T2 sequence: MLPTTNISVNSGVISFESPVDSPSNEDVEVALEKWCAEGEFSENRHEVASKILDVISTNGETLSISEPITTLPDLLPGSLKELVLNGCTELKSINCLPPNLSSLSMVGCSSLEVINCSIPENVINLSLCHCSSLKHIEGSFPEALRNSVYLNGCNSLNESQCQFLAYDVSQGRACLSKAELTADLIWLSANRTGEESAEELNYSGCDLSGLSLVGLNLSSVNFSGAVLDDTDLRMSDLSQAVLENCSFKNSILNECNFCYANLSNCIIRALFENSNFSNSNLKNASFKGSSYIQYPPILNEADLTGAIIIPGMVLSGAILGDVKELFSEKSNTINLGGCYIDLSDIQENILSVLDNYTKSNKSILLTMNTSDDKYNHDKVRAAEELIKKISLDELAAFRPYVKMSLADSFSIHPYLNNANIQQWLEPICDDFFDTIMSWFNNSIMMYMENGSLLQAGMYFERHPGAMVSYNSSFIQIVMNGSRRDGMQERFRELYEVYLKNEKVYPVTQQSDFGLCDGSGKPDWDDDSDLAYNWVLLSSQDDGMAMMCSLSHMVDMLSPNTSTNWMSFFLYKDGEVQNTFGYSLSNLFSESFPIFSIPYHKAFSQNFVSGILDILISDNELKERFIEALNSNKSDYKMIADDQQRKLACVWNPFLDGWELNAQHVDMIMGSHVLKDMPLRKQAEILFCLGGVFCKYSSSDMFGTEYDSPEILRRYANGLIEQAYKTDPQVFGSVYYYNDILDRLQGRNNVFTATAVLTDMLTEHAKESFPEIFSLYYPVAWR
Briefly: pull-down. The following applies: both partners purified.

B1: His6-tagged JNK1 purified from bacteria (enzyme, human, UniProt P45983-2 1-384, looked up)
chain: MSRSKRDNNFYSVEIGDSTFTVLKRYQNLKPIGSGAQGIVCAAYDAILERNVAIKKLSRPFQNQTHAKRAYRELVLMKCVNHKNIIGLLNVFTPQKSLEEFQDVYIVMELMDANLCQVIQMELDHERMSYLLYQMLCGIKHLHSAGIIHRDLKPSNIVVKSDCTLKILDFGLARTAGTSFMMTPYVVTRYYRAPEVILGMGYKENVDLWSVGCIMGEMVCHKILFPGRDYIDQWNKVIEQLGTPCPEFMKKLQPTVRTYVENRPKYAGYSFEKLFPDVLFPADSEHNKLKASQARDLLSKMLVIDASKRISVDEALQHPYINVWYDPSEAEAPPPKIPDKQLDEREHTIEEWKELIYKEVMDLEERTKNGVIRGQPSPLAQVQQ
notes: human JNK1α1 (MAPK8), in pET28a with 6x His tag; also called His-JNK1; source: E. coli BL21 (DE3), purified (Ni-NTA)
Take B1: the binding result in experiment [1] and in experiment [2] was “binds” each time.
